Measurements published in PMC9870083.

Biological target: RARα (UniProt P10276)
Test: Flag IP of RARα, GFP-p65 blot
Details: reference: GFP-p65 wild type; sites S276

binding against the reference: lost
Substance: RelA/p65 (from UniProt Q04206) GFP-p65-S276A
